Target: T1, rat CaSR (rCaSR) (Rattus norvegicus, UniProt P48442)
T1 construct: mGlu5 signal peptide (N); expressed in transfected cells; host or cells: HEK293A, transient transfection
T1 sequence (P48442 20-1079): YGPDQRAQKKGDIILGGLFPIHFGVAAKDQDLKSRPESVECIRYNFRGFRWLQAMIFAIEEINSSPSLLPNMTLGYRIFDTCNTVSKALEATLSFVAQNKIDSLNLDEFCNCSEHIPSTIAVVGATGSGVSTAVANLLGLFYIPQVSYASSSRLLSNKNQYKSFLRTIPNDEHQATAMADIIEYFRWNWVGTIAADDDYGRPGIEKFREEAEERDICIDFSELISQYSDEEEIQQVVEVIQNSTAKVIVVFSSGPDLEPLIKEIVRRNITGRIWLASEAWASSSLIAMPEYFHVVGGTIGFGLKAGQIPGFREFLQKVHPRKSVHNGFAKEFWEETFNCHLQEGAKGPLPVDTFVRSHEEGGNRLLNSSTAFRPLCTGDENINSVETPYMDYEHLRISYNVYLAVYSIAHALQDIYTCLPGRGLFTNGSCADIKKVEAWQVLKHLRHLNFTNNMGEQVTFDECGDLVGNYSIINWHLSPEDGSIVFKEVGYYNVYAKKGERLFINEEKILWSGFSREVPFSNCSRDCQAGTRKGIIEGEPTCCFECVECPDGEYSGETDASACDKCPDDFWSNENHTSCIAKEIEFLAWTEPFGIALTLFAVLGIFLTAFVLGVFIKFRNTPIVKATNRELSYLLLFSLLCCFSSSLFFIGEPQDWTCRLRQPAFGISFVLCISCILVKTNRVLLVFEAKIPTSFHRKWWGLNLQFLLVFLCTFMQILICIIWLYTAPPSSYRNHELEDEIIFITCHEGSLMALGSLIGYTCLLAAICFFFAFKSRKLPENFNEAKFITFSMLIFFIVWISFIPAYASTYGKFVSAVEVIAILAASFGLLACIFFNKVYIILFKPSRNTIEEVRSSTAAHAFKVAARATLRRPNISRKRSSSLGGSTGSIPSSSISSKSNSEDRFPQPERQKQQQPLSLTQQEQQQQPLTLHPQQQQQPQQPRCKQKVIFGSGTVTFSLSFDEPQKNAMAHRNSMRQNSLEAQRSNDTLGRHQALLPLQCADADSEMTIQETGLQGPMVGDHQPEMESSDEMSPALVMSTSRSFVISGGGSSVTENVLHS
Test: IP1 accumulation assay, HEK293A cells transiently transfected with HA-rCaSR WT
Assay type: cell-based
Conditions: IP1 accumulation at EC20 Ca2+
From the text: The rat and human CaSR orthologs have an overall sequence identity of 93.6% and an ECD sequence identity of 95.7% (SEQ ID NO:1 aligned with SEQ ID NO:2). Thus, differences in CaSR nanobody activity are unlikely to be observed. […] Besides CaSR Nb36, similar results were obtained among the nanobodies that originate from the same family (FIGS. 7E and 7F). For Nb36, the increase in maximum response relative to Nb4 and Nb11 previously observed with human CaSR was absent (FIGS. 7C and 7F). The binding site of these nanobodies still remains to be found. The difference in CaSR Nb36 maximum response and the high interspecies sequence identity could bring us one step closer to finding the binding site for CaSR Nb4, Nb11 and Nb36.
All cell lines utilized in this study were grown at 37° C. and 5% CO2. The HEK293A (RRID: CVCL_6910) and stable Flp-In HEK293 cells were cultured in Dulbecco's Modified Eagle Medium (DMEM, #31966021) supplemented with 10% dialyzed Fetal Bovine Serum (dFBS) and 1% 10,000 units/mL penicillin and 10,000 μg/mL streptomycin mixture (pen/strep). The stable Flp-In CHO cells were cultured in F-12K medium (#21127022) supplemented with 10% dFBS and 1% pen/strep. Additionally, the stable Flp-In HEK293 and Flp-In CHO cell lines were cultured in the presence of respectively 200 and 500 μg/mL hygromycin B. For pharmacological characterization, Flp-In HEK293 HA-hCaSR WT cells were seeded in poly-D-lysine-coated clear 96 well tissue culture plates (Corning, Corning, N.Y., USA) at a density of 50,000 cells/well 18 h prior to assay. Experiments with HA-rCaSR WT and HA-hCaSR S170A required transient transfection of HEK293A cells 24 h prior to assay. DNA construct and Lipofectamine 2000 were diluted in Opti-MEM and mixed together after 5 minutes incubation at room temperature. For HA-rCaSR WT, 30 ng/well rCaSR DNA diluted in 25 μL/well Opti-MEM was mixed with 0.25 μL/well Lipofectamine 2000 in 25 μL/well Opti-MEM. For HA-hCaSR S170A, 40 ng/well […] DNA diluted in 25 μL/well Opti-MEM was mixed with 0.25 μL/well Lipofectamine 2000 in 25 μL/well Opti-MEM. The DNA:Lipofectamine 2000 mixtures were incubated 20 minutes at room temperature after which 50 μL/well was added to a poly-D-lysine-coated clear 96 well tissue culture plate. Next, 100 μL/well of a 400,000 cells/mL HEK293A cell solution prepared in culture media was added and the plate was placed at 37° C. and 5% CO2 (final cell density 40,000 cells/well).
Inositol monophosphate (IP1) accumulation was measured using the commercially available HTRF® IP1 accumulation kit (Cisbio Bioassays, Codolet, France) and an EnVision multimode plate reader (PerkinElmer, Waltham, Mass., USA). Unless stated otherwise, the cells were washed once with 100 μL/well assay buffer and stimulated for 30 minutes at 37° C. with 50 μL/well ligand(s) diluted in assay buffer supplemented with 20 mM LiCl. Following stimulation, the cells were washed once with 100 μL/well and lysed for 30 minutes at room temperature with 30 μL/well lysis buffer provided with the kit. The lysed cells were diluted 1:2 with assay buffer after which 10 μL/well was pipetted to a white 384-well OptiPlate (PerkinElmer, Waltham, Mass., USA). Next, 10 μL of a detection solution consisting of 2.5% IP1-d2 conjugate and 2.5% anti-IP1 antibody diluted in assay buffer was added to each well. Fluorophore emissions were measured after the plate was stored in the dark for 1 h. The 615/665 nm emission ratios measured upon excitation at 340 nm were converted to IP1 concentrations with an IP1 standard curve according to the manufacturer's instructions.

[1] = three independent experiments in triplicate

Molecule | Max. response (fold over basal ± S.E.M.), rat ortholog | EC50 (three independent experiments in triplicate, read-out: Potency (pEC50 ± S.E.M.), rat ortholog (converted)) | Potency (pEC50 ± S.E.M.), rat ortholog [1]
COc1cccc([C@@H](C)NCCCc2ccccc2Cl)c1 [NPS R-568, reference compound] | 3.43 ± 0.76 fold over basal | 257 nM | 
Nb5: llama-derived CaSR-specific nanobody, weakest PAM, SEQ ID NO:8 (protein, CaSR Nb5) VHH: QVQLVESGGRLVQDGGSLRLSCAASGLTFSDYSMGWFRQVPGKEREFVAVIRRSNDSTYYADFVKGRFTISRDNAKNTVYLQMNSLQPEDTAVYSCAADRGGVGLTSAQTYAYWGQGTQVTVSS | 1.28 ± 0.12 fold over basal |  | 
Nb4: llama-derived CaSR-specific nanobody acting as PAM, SEQ ID NO:5 (protein, CaSR Nb4) VHH: QVQLVESGGGLVQAGGSLRLSCAASGRTFSTYRMGWFRQGLGKEREFVAAITANGVRTFYTDSVKGRFTISRDNAKNTLYLQMNSLQPDDTAVYLCAARRKGIFTVQQAQDITDWDYWGQGTQVTVSS | 3.03 ± 0.63 fold over basal |  | 7.09 ± 0.09
Nb2: llama-derived CaSR-specific nanobody acting as PAM, SEQ ID NO:9 (protein, CaSR Nb2) VHH: QVQLVESGGGLVQAGSSLRLSCAASGRTFSNYRMAWFRQAPGKEREFVAVISRGGGGADYADSVKGRFTISRDNVKNTVSLQMNSLKPEDTAVYFCAARISGFSYYTSVDRYDYWGQGTQVTVSS | 3.01 ± 0.51 fold over basal |  | 6.46 ± 0.07

The remaining lines, values ahead:

Max. response (fold over basal ± S.E.M.), rat ortholog | EC50 (three independent experiments in triplicate, read-out: Potency (pEC50 ± S.E.M.), rat ortholog (converted)) | Potency (pEC50 ± S.E.M.), rat ortholog [1] | Molecule
2.88 ± 0.13 fold over basal |  | 6.31 ± 0.07 | Nb15: llama-derived CaSR-specific nanobody acting as PAM, SEQ ID NO:10 (protein, CaSR Nb15) VHH: QVQLVESGGGLVQAGGSLRLSCAASGRTFNNYHMAWFRQAPGKEREFAAAISRRAGTTYYADSVKGRFTISRDNAKNTVYLQMNSLKPEDTAVYYCAADPDTYGVSYLARKYDYWGQGTQVTVSS
3.10 ± 0.12 fold over basal |  | 6.78 ± 0.03 | Nb36: llama-derived CaSR-specific nanobody acting as PAM, SEQ ID NO:7 (protein, CaSR Nb36) VHH: QVQLVESGGGLVQAGESLRLSCAASGRTFSSYRMGWFRQGPGKEREFVAAITATGVRTYYADSVKGRFTISRDNAKNTVYLQMNSLQPDDTAVYLCAARRKAIFSVQQALTITDYDDWGQGTQVTVSS
2.90 ± 0.23 fold over basal |  | 6.24 ± 0.11 | Nb11: llama-derived CaSR-specific nanobody acting as PAM, SEQ ID NO:6 (protein, CaSR Nb11) VHH: QVQLVESGGGLVQAGGSLRLSCAASGRTFSTYRMGWFRQGPGKEREFVAAITATGVKTYYTDSVKGRFTISRDNAKNTVYLQMNSVQPEDTAVYSCAARIKAIFTAQQAATITDYDYWGQGTQVTVSS
2.89 ± 0.13 fold over basal |  | 6.29 ± 0.02 | Nb10: llama-derived CaSR-specific nanobody acting as PAM, SEQ ID NO:3 (protein, CaSR Nb10) VHH: QVQLVESGGGLVQPGDSLRVSCAASGGSFRSYAMAWFRQAPGKEREFVAAMSGTYGSTIYSDSMKGRFTISRDNAKKMVYLRMNSLRPEDTAVYYCAGYYSGAYYGTPKTDYTEYDSWGQGTQVTVSS
3.07 ± 0.39 fold over basal |  | 6.00 ± 0.28 | Nb37: llama-derived CaSR-specific nanobody acting as PAM, SEQ ID NO:4 (protein, CaSR Nb37) VHH: QVQLVESGGGLVQPGDSLRVSCAASGGSFRSYAMAWFRRAPGKEREFVAAMSGTYGSTIYADSMKGRFTISRDNAKKMVYLRMNSLRAEDTAVYYCAGYYSGAYYGTPKTDYTEYDSWGQGTQVTVSS
